Measured values: IntAct's records for PubMed 29039417

B1: BBSome complex member BBS2 (Homo sapiens), Q9BXC9 (parent)
chain: MLLPVFTLKLRHKISPRMVAIGRYDGTHPCLAAATQTGKVFIHNPHTRNQHVSASRVFQSPLESDVSLLSINQAVSCLTAGVLNPELGYDALLVGTQTNLLAYDVYNNSDLFYREVADGANAIVLGTLGDISSPLAIIGGNCALQGFNHEGSDLFWTVTGDNVNSLALCDFDGDGKKELLVGSEDFDIRVFKEDEIVAEMTETEIVTSLCPMYGSRFGYALSNGTVGVYDKTSRYWRIKSKNHAMSIHAFDLNSDGVNELITGWSNGKVDARSDRTGEVIFKDNFSSAIAGVVEGDYRMDGHIQLICCSVDGEIRGYLPGTAEMRGNLMDTSAEQDLIRELSQKKQNLLLELRNYEENAKAELASPLNEADGHRGIIPANTRLHTTLSVSLGNETQTAHTELRISTSNDTIIRAVLIFAEGIFTGESHVVHPSIHNLSSSICIPIVPPKDVPVDLHLKAFVGYRSSTQFHVFESTRQLPRFSMYALTSLDPASEPISYVNFTIAERAQRVVVWLGQNFLLPEDTHIQNAPFQVCFTSLRNGGHLHIKIKLSGEITINTDDIDLAGDIIQSMASFFAIEDLQVEADFPVYFEELRKVLVKVDEYHSVHQKLSADMADHSNLIRSLLVGAEDARLMRDMKTMKSRYMELYDLNRDLLNGYKIRCNNHTELLGNLKAVNQAIQRAGRLRVGKPKNQVITACRDAIRSNNINTLFKIMRVGTASS
partner: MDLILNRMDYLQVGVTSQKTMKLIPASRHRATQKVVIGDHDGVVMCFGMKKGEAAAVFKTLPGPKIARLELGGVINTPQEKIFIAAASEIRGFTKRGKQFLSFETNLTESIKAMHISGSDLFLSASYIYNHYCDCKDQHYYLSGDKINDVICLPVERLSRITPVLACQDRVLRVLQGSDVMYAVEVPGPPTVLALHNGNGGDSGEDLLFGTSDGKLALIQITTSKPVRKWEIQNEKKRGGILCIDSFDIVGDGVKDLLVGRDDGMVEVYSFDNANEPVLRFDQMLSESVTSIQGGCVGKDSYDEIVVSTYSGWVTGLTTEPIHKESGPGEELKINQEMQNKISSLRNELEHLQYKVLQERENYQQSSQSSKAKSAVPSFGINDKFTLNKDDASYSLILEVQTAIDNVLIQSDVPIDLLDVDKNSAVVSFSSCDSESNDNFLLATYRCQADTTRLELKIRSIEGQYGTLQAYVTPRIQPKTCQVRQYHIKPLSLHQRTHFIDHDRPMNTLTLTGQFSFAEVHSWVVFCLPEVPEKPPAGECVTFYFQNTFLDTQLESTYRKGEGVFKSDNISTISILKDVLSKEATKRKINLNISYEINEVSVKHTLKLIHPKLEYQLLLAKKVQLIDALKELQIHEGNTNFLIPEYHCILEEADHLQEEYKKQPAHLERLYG

Variants of: B1
Details: with BBS7, Q8IWZ6-2

Variant | effect of a mutation on the interaction
L457C | disrupting interaction strength
L457K | disrupting interaction strength
S440A | disrupting interaction strength
S440K | with no effect
S440F | disrupting interaction strength
P452A | with no effect
H435K | with no effect
H435A | with no effect
S439K | with no effect
S439A | with no effect
S439E | with no effect
H470E | with no effect
H470A | with no effect
K449E | with no effect
L437A | with no effect
L437K | disrupting interaction strength
S466A | with no effect
S466K | with no effect
V461K | with no effect
V461A | disrupting interaction strength
V461M | disrupting interaction strength
V451A | with no effect
E426A | with no effect
E426K | with no effect

Variant | effect of a mutation on the interaction
F418A | with no effect
F418K | with no effect
D450E | with no effect
D450A | with no effect
D450K | disrupting interaction strength
E420A | with no effect
V415K | with no effect
S465A | with no effect
S465K | with no effect
S465E | with no effect
I434K | with no effect
I434E | with no effect
I434A | with no effect
P444E | with no effect
P444K | with no effect
I445A | disrupting interaction strength
I445K | with no effect
G425K | with no effect
G425E | with no effect
T467A | with no effect
P447K | disrupting interaction strength
P447E | disrupting interaction strength
P447A | with no effect
I443E | with no effect

Variant | effect of a mutation on the interaction
K458A | with no effect
V453E | with no effect
V453K | disrupting interaction strength
V453A | with no effect
I441A | with no effect
I441R | disrupting interaction strength
I441E | disrupting interaction strength
I441K | with no effect
A459K | disrupting interaction strength
A459E | with no effect
P448E | with no effect
P448A | with no effect
P448K | with no effect
H431E | with no effect
H431K | with no effect
L416A | with no effect
L416E | with no effect
S433A | with no effect
S433K | with no effect
A419K | with no effect
A419E | with no effect
H428K | with no effect
H428A | with no effect
T424E | with no effect

Variant | effect of a mutation on the interaction
T424K | with no effect
V429A | with no effect
V429E | with no effect
V429K | with no effect
H456E | with no effect
H456K | with no effect
Q468E | with no effect
Q468K | with no effect
Q468L | disrupting interaction strength
V430K | with no effect
V430A | with no effect
I422A | with no effect
I422E | with no effect
I422K | with no effect
F469A | with no effect
F469K | with no effect
F469S | disrupting interaction strength
R464A | with no effect
R464E | with no effect
R464K | with no effect
R464T | disrupting interaction strength
F423E | with no effect
F423K | with no effect
G421A | with no effect

Variant | effect of a mutation on the interaction
G421E | with no effect
S438E | with no effect
S438K | with no effect
V446A | with no effect
V446E | with no effect
C442A | with no effect
A414E | with no effect
P432K | with no effect
P432A | with no effect
Y463K | with no effect
Y463E | with no effect
L455A | with no effect
R413E | with no effect
R413K | with no effect
F460K | with no effect
I417A | with no effect
I417E | with no effect
I417K | with no effect
D454E | with no effect
D454K | with no effect
G462K | with no effect
G462A | with no effect

Continued, values first:

effect of a mutation on the interaction | Variant
with no effect | L457A
disrupting interaction strength | L457E
disrupting interaction strength | S440E
with no effect | P452K
with no effect | P452E
with no effect | H435E
with no effect | K449A
with no effect | L437E
with no effect | S427K
with no effect | S427A
with no effect | S427E
disrupting interaction strength | S466E
with no effect | V461E
with no effect | V451K
with no effect | V451E
with no effect | F418E
with no effect | E420K
with no effect | V415E
with no effect | V415A

effect of a mutation on the interaction | Variant
with no effect | P444A
disrupting interaction strength | I445E
with no effect | G425A
with no effect | T467E
with no effect | T467K
with no effect | I443A
disrupting interaction strength | I443K
with no effect | K458E
with no effect | N436K
with no effect | N436E
with no effect | N436A
with no effect | H431A
with no effect | L416K
with no effect | S433E
with no effect | H428E
with no effect | T424A
with no effect | H456A
with no effect | Q468A
with no effect | V430E

effect of a mutation on the interaction | Variant
disrupting interaction strength | F469M
with no effect | F469E
with no effect | F423A
with no effect | G421K
with no effect | S438A
with no effect | V446K
with no effect | C442E
with no effect | C442K
with no effect | A414K
with no effect | P432E
disrupting interaction strength | Y463A
with no effect | L455K
disrupting interaction strength | L455E
with no effect | R413A
with no effect | F460E
with no effect | F460A
with no effect | D454A
with no effect | G462E
